Results published in paper PMC4775916 (Antimicrobial Agents and Chemotherapy, 2016).
Values joined by “and” are separate entries in the source; they are usually repeats but may differ in a detail not shown here. Equal entries are not always repeated.

What was measured:
[1] = tested on: VIM-5; design: method as in Garcar et al. (6); details: previous studies ref Garcar et al. (6), cited from earlier work
[2] = target: T1, VIM-1 (Pseudomonas aeruginosa, UniProt A0A0F7KYQ8); assay: Steady-state kinetics of β-lactam substrate hydrolysis; format: biochemical
T1 construct: The N- and C- terminal residues of the mature enzymes are labelled 26; made in house
Experimental: (§1) The hydrolysis of a representative panel of β-lactam substrates was monitored at their respective absorbance wavelengths. The wavelengths and extinction coefficients used were previously described ([34]). The assays were carried out using 50 mM HEPES buffer (pH 7.2) supplemented with 1 μg/ml bovine serum albumin (BSA), 1 μM ZnSO4, and 0.01% Triton X-100. In the case of VIM-1, C-terminally His6-tagged VIM-1 was used for kinetic analyses. Note that no differences were observed between the activities of untagged VIM-1 and C-terminally His6-tagged VIM-1 for the selected antibiotics (data not shown). The initial rates were obtained from the changes in absorbance at various substrate concentrations. Steady-state kinetic parameters (Km and kcat) were determined by fitting the initial velocity data to the Michaelis-Menten equation using GraphPad Prism 5.01 software (see Table S4 in the supplemental material).

[3] = target: T2, VIM-38 (Pseudomonas aeruginosa, UniProt A0A0F7KYQ8, A128K/A265V/E202A/H201L/K257T/S205R); assay: as above; format: biochemical; details: 50 mM HEPES pH 7.2, apparent for ampicillin and ceftazidime
T2 construct: The N- and C- terminal residues of the mature enzymes are labelled 26; His6 with HRV3C cleavage site (pET-28a) (N, cleaved yes); made in house; host or cells: E. coli BL21(DE3)
Experimental: as §1

[4] = target: T3, VIM-5 (Pseudomonas aeruginosa, UniProt A0A0F7KYQ8, A128K/E202A/H201L/K257T/S205R); assay: as above; format: biochemical; details: 50 mM HEPES pH 7.2, apparent for ampicillin and ceftazidime
T3 construct: His6 with HRV3C cleavage site (pET-28a) (N, cleaved yes); made in house; host or cells: E. coli BL21(DE3)
Experimental: as §1

[5] = target: T1, VIM-1; details: previous studies ref Franceschini et al. (4), cited from earlier work
[6] = tested on: VIM-2; design: method as in Poirel et al. (5); details: previous studies ref Poirel et al. (5), cited from earlier work
[7] = target: T4, VIM-2 (Escherichia coli, UniProt Q5U7L7); format: biochemical; details: 50 mM HEPES pH 7.2; apparent for ampicillin and ceftazidime
T4 construct: His6 (N, cleaved yes); made in house
Experimental: as §1

[8] = target: T1, VIM-1; assay: Inhibition of enzyme-mediated nitrocefin hydrolysis; format: biochemical; details: read-out: IC50 VIM-1 (H224, S228); as to IC50 VIM-4 (H224, R228): 10 min preincubation
Experimental: (§2) Inhibitors were prepared as reported previously ([36], [41]). Enzyme-mediated hydrolysis of nitrocefin was monitored by determining the changes in absorbance at 495 nm, as previously described ([36], [37]). Residual activities were first determined at a 100 μM inhibitor concentration. […] The residual activities were obtained at increasing inhibitor concentrations (0.2 to 2,000 μM); the data were analyzed using GraphPad Prism 5.01 software.

[9] = target: T5, VIM-4 (Pseudomonas aeruginosa, UniProt A0A0F7KYQ8, S205R); assay: as above; format: biochemical; details: read-out: IC50 VIM-4 (H224, R228); also: 10 min preincubation
T5 construct: His6 (N, cleaved yes); made in house
Experimental: as §2

[10] = target: T2, VIM-38; assay: as above; format: biochemical
Experimental: as §2

[11] = target: T3, VIM-5; assay: as above; format: biochemical
Experimental: as §2

[12] = target: T4, VIM-2; assay: as above; format: biochemical; details: read-out: IC50 VIM-2 (Y224, R228)
Experimental: as §2

[13] = tested on: CC(=O)OCC1=C(C(=O)O)N2C(=O)[C@@H](NC(=O)Cc3cccs3)[C@H]2SC1; assay: Steady-state kinetics of β-lactam substrate hydrolysis; format: biochemical; details: other: C-terminally His6-tagged VIM-1, 50 mM HEPES pH 7.2, apparent for ampicillin and ceftazidime
Experimental: as §1

[14] = tested on: C[C@@H](O)[C@H]1C(=O)N2C(C(=O)O)=C(S[C@@H]3CN[C@H](C(=O)N(C)C)C3)[C@H](C)[C@H]12; assay: as above; format: biochemical; details: other: C-terminally His6-tagged VIM-1, 50 mM HEPES pH 7.2, apparent for ampicillin and ceftazidime
Experimental: as §1

[15] = tested on: CC(C)(O/N=C(\C(=O)N[C@@H]1C(=O)N2C(C(=O)[O-])=C(C[n+]3ccccc3)CS[C@H]12)c1csc(N)n1)C(=O)O; assay: as above; format: biochemical; details: other: C-terminally His6-tagged VIM-1, 50 mM HEPES pH 7.2, apparent for ampicillin and ceftazidime
Experimental: as §1

[16] = tested on: CO[C@@]1(NC(=O)Cc2cccs2)C(=O)N2C(C(=O)O)=C(COC(N)=O)CS[C@@H]21; assay: as above; format: biochemical; details: other: C-terminally His6-tagged VIM-1, 50 mM HEPES pH 7.2, apparent for ampicillin and ceftazidime
Experimental: as §1

[17] = tested on: O=C(Cc1cccs1)N[C@@H]1C(=O)N2C(C(=O)O)=C(/C=C/c3ccc([N+](=O)[O-])cc3[N+](=O)[O-])CS[C@H]12; assay: as above; format: biochemical; details: other: C-terminally His6-tagged VIM-1, 50 mM HEPES pH 7.2, apparent for ampicillin and ceftazidime
Experimental: as §1

[18] = tested on: C[C@@H](O)[C@H]1C(=O)N2C(C(=O)O)=C(SCCN=CN)C[C@H]12; assay: as above; format: biochemical; details: other: C-terminally His6-tagged VIM-1, 50 mM HEPES pH 7.2, apparent for ampicillin and ceftazidime
Experimental: as §1

[19] = tested on: O=C(Cc1cccs1)N[C@@H]1C(=O)N2C(C(=O)O)=C(/C=C/c3ccc([N+](=O)[O-])cc3[N+](=O)[O-])CS[C@H]12; assay: Nitrocefin hydrolysis kinetics before thermal denaturation and after refolding; format: biochemical; details: other: nitrocefin hydrolysis
Experimental: Circular dichroism (CD) analyses were carried out using a Chirascan CD spectrophotometer (Applied Photophysics) equipped with a Peltier temperature-controlled cell holder. CD measurements were collected in the range of 185 to 260 nm; spectra were baseline corrected and smoothed using a Savitzky-Golay filter. Data were normalized at 207 nm to account for differences in protein concentrations ([38]), and the estimation of secondary structure content was performed with Dichro Web ([39]) using the CONTIN Analysis Programme (reference set 6) ([40]). Melting temperatures (Tm) of the recombinant enzymes were determined by monitoring temperature-induced changes in the CD signal at 222 nm. The temperature was increased by 1°C per min, and the CD signal was recorded at temperatures ranging from 25°C to 92°C. The samples were then cooled from 92°C to 25°C at the same rate, and a CD spectrum of the refolded proteins was determined. The activity of the enzymes was recorded before thermal denaturation and after refolding by monitoring nitrocefin hydrolysis. The thermal denaturation data were fitted to a Boltzmann sigmoidal curve by using GraphPad Prism 5.0 software. CD spectra and thermal denaturation curves are shown in Fig. 2 and in Tables S2 and S3 in the supplemental material.

[20] = tested on: CC(=O)OCC1=C(C(=O)O)N2C(=O)[C@@H](NC(=O)Cc3cccs3)[C@H]2SC1; assay: purified protein, by the assay type; format: biochemical; details: other: 50 mM HEPES pH 7.2, apparent for ampicillin and ceftazidime
Experimental: as §1

[21] = tested on: C[C@@H](O)[C@H]1C(=O)N2C(C(=O)O)=C(S[C@@H]3CN[C@H](C(=O)N(C)C)C3)[C@H](C)[C@H]12; assay: purified protein, by the assay type; format: biochemical; details: other: 50 mM HEPES pH 7.2, apparent for ampicillin and ceftazidime
Experimental: as §1

[22] = tested on: CC(C)(O/N=C(\C(=O)N[C@@H]1C(=O)N2C(C(=O)[O-])=C(C[n+]3ccccc3)CS[C@H]12)c1csc(N)n1)C(=O)O; assay: purified protein, by the assay type; format: biochemical; details: other: 50 mM HEPES pH 7.2, apparent for ampicillin and ceftazidime
Experimental: as §1

[23] = tested on: CO[C@@]1(NC(=O)Cc2cccs2)C(=O)N2C(C(=O)O)=C(COC(N)=O)CS[C@@H]21; assay: purified protein, by the assay type; format: biochemical; details: other: 50 mM HEPES pH 7.2, apparent for ampicillin and ceftazidime
Experimental: as §1

[24] = tested on: O=C(Cc1cccs1)N[C@@H]1C(=O)N2C(C(=O)O)=C(/C=C/c3ccc([N+](=O)[O-])cc3[N+](=O)[O-])CS[C@H]12; assay: purified protein, by the assay type; format: biochemical; details: other: 50 mM HEPES pH 7.2, apparent for ampicillin and ceftazidime
Experimental: as §1

[25] = tested on: C[C@@H](O)[C@H]1C(=O)N2C(C(=O)O)=C(SCCN=CN)C[C@H]12; assay: purified protein, by the assay type; format: biochemical; details: other: 50 mM HEPES pH 7.2, apparent for ampicillin and ceftazidime
Experimental: as §1

Q: What does the source list for C[C@@H](O)[C@H]1C(=O)N2C(C(=O)O)=C(S[C@@H]3CN[C@H](C(=O)N(C)C)C3)[C@H](C)[C@H]12 [Meropenem]?
A: kcat VIM-5 (previous study) [1]: 2.4 s⁻¹; Km ([1]; read-out: Km VIM-5 (previous study)): 49 µM; kcat VIM-1 ([2]; C-terminally His6-tagged VIM-1, 50 mM HEPES pH 7.2, apparent for ampicillin and ceftazidime): 50 s⁻¹; Km for VIM-1 fold higher than that for VIM-2 ([2]; VIM-1 versus VIM-2): > 6 fold; kcat for VIM-1 fold higher than those for VIM-2 ([2]; VIM-1 versus VIM-2): > 7 fold; kcat VIM-38 [3]: 10 s⁻¹; Km ([3]; read-out: Mean Km ± SD VIM-38): 30 ± 4 µM; kcat VIM-5 [4]: 16 s⁻¹ and 20 s⁻¹; Km ([4]; read-out: Mean Km ± SD VIM-5): 70 ± 10 µM; kcat VIM-1 (previous study) [5]: 13 s⁻¹; Km ([5]; read-out: Km VIM-1 (previous study)): 48 µM; kcat VIM-2 (previous study) [6]: 1.4 s⁻¹; Km ([6]; read-out: Km VIM-2 (previous study)): 5 µM; kcat VIM-2 [7]: 7 s⁻¹

Q: Which IC50 [8] does the source give for O=C(N[C@H](Cc1c[nH]c2ccccc12)C(=O)O)c1ncccc1O [compound 3] here?
A: 50 µM

Q: And the IC50 [9]?
A: 125 µM

Q: And the IC50 [10]?
A: 50 µM

Q: What about the IC50 [11] of the same compound?
A: 50 µM

Q: What about the IC50 [12] of the same compound?
A: 100 µM

Q: With VIM-1 (Pseudomonas aeruginosa PAO1) as the compound, how does the Km [13] read?
A: 140 ± 10 µM

Q: And the kcat [13]?
A: 450 s⁻¹

Q: And the kcat/Km [13]?
A: 3.2e+06 M⁻¹ s⁻¹

Q: What about the Km [14] of the same compound?
A: 130 ± 20 µM

Q: What about the kcat [14] of the same compound?
A: 50 s⁻¹

Q: What about the kcat/Km [14] of the same compound?
A: 400000 M⁻¹ s⁻¹

Q: What about the Km [15] of the same compound?
A: 180 ± 60 µM

Q: And the kcat [15]?
A: 3 s⁻¹

Q: What about the kcat/Km [15] of the same compound?
A: 20000 M⁻¹ s⁻¹

Q: And the Km [16]?
A: 170 ± 50 µM

Q: What about the kcat [16] of the same compound?
A: 30 s⁻¹

Q: What about the kcat/Km [16] of the same compound?
A: 200000 M⁻¹ s⁻¹

Q: And the Km [17]?
A: 15 ± 1 µM

Q: What about the kcat [17] of the same compound?
A: 130 s⁻¹

Q: What about the kcat/Km [17] of the same compound?
A: 8.7e+06 M⁻¹ s⁻¹

Q: And the Km [18]?
A: 60 ± 10 µM

Q: And the kcat [18]?
A: 30 s⁻¹

Q: And the kcat/Km [18]?
A: 500000 M⁻¹ s⁻¹

Q: What about the Km ([19]; after refolding) of the same compound?
A: 26 ± 3 µM

Q: And the Km ([19]; pre-heating)?
A: 20 ± 2 µM

Q: What about the kcat ([19]; pre-heating) of the same compound?
A: 7 s⁻¹

Q: And the kcat/Km ([19]; pre-heating)?
A: 300000 M⁻¹ s⁻¹

Q: Which Km ([19]; after refolding) does the source give for VIM-2 (Escherichia coli) here?
A: 15 ± 1 µM

Q: And the kcat ([19]; after refolding)?
A: 130 s⁻¹

Q: And the kcat/Km ([19]; after refolding)?
A: 8.7e+06 M⁻¹ s⁻¹

Q: What about the Km [20] of the same compound?
A: 50 ± 6 µM

Q: What about the kcat [20] of the same compound?
A: 210 s⁻¹

Q: What about the kcat/Km [20] of the same compound?
A: 4.2e+06 M⁻¹ s⁻¹

Q: And the Km [21]?
A: 20 ± 4 µM

Q: What about the kcat [21] of the same compound?
A: 7 s⁻¹

Q: What about the kcat/Km [21] of the same compound?
A: 300000 M⁻¹ s⁻¹

Q: And the Km [22]?
A: 120 ± 20 µM

Q: And the kcat [22]?
A: 2 s⁻¹

Q: And the kcat/Km [22]?
A: 20000 M⁻¹ s⁻¹

Q: What about the Km [23] of the same compound?
A: 40 ± 10 µM

Q: And the kcat [23]?
A: 50 s⁻¹

Q: And the kcat/Km [23]?
A: 1.3e+06 M⁻¹ s⁻¹

Q: And the Km [24]?
A: 50 ± 5 µM

Q: What about the kcat [24] of the same compound?
A: 510 s⁻¹

Q: And the kcat/Km [24]?
A: 1.02e+07 M⁻¹ s⁻¹

Q: What about the Km [25] of the same compound?
A: 33 ± 4 µM and 30 ± 4 µM

Q: And the kcat [25]?
A: 95 s⁻¹ and 100 s⁻¹

Q: What about the kcat/Km [25] of the same compound?
A: 3.3e+06 M⁻¹ s⁻¹
